Data on 4 molecules can be found in article PMC11229316, “Insights into the molecular mechanism of ParABS system in chromosome partition by HpParA and HpParB” (Nucleic Acids Research, 2024).

No end group written: not given here.

For data set [1], the target named is HpParAD41A;HpParB (HpSpo0J) (Helicobacter pylori;Helicobacter pylori, UniProt O25759;O25758 1-264;1-290, D41A|). Description: EMSA; no CTP; NAC3 with Cy3-parS (N3) also in complex; FP: 20 mM Tris-HCl pH 8.0, 175 mM NaCl, 5 mM MgCl2, 10% glycerol, 1 mM ATP or CTP, 5 nM DNA, room temperature; EMSA: 20 mM Tris-HCl pH 8.0, 50 mM NaCl, 11 mM imidazole, 5 mM MgCl2, 10% glycerol, +/- 2 mM CTP, 37 C, gel at 4 C. As to conditions: protein: recombinant;recombinant; tags: His (Ni-NTA purified); label: 5' Cy5 in EMSA; FP label Cy3 or Cy5 not specified per DNA; blunt.

In data set [2] the target is T1, HpParA (HpSoj);HpParB (HpSpo0J) (Helicobacter pylori;Helicobacter pylori, UniProt O25759;O25758 1-264;1-290, |).
T1 sequence 1: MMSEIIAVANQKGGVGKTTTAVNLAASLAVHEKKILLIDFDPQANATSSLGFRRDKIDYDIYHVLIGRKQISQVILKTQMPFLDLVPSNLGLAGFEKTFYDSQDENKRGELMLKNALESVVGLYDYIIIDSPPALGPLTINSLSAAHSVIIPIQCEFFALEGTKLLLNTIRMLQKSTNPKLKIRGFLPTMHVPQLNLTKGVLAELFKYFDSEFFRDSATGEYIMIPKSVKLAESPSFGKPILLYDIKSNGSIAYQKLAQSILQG
T1 sequence 2: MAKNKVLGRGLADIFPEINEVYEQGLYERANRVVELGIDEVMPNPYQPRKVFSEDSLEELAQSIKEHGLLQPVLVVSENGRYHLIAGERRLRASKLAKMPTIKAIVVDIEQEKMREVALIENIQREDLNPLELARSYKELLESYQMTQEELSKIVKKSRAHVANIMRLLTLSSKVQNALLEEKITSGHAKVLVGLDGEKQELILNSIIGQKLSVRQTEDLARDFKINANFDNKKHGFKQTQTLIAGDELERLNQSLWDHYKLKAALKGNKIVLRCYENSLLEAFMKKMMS
Briefly: EMSA; no CTP; NAC1 with Cy3-parS (N3) also in complex; FP: 20 mM Tris-HCl pH 8.0, 175 mM NaCl, 5 mM MgCl2, 10% glycerol, 1 mM ATP or CTP, 5 nM DNA, room temperature; EMSA: 20 mM Tris-HCl pH 8.0, 50 mM NaCl, 11 mM imidazole, 5 mM MgCl2, 10% glycerol, +/- 2 mM CTP, 37 C, gel at 4 C. As to conditions: protein: recombinant;recombinant; tags: His (Ni-NTA purified); label: 5' Cy5 in EMSA; FP label Cy3 or Cy5 not specified per DNA; blunt.

The target in data set [3] is HpParAD41A (Helicobacter pylori, UniProt O25759 1-264, D41A). Description: fluorescence polarization; 1 mM ATP, 5 mM Mg2+; FP: 20 mM Tris-HCl pH 8.0, 175 mM NaCl, 5 mM MgCl2, 10% glycerol, 1 mM ATP or CTP, 5 nM DNA, room temperature; EMSA: 20 mM Tris-HCl pH 8.0, 50 mM NaCl, 11 mM imidazole, 5 mM MgCl2, 10% glycerol, +/- 2 mM CTP, 37 C, gel at 4 C. As to conditions: protein: recombinant; tags: His (Ni-NTA purified); label: 5' Cy5 in EMSA; FP label Cy3 or Cy5 not specified per DNA; blunt.

The target in data set [4] is T2, HpParA (HpSoj) (Helicobacter pylori, UniProt O25759 1-264).
T2 sequence: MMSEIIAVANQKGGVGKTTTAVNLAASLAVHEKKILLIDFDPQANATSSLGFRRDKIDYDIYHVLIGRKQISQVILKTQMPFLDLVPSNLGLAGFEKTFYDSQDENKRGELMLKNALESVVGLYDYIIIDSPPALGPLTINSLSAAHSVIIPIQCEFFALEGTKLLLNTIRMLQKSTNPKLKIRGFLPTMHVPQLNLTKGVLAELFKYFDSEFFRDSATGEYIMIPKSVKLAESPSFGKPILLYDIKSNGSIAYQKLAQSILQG
Described as above. As to conditions: protein: recombinant; tags: His (Ni-NTA purified); label: 5' Cy5 in EMSA; FP label Cy3 or Cy5 not specified per DNA; blunt.

In data set [5] the target is T3, HpParB (HpSpo0J) (Helicobacter pylori, UniProt O25758 1-290).
T3 sequence: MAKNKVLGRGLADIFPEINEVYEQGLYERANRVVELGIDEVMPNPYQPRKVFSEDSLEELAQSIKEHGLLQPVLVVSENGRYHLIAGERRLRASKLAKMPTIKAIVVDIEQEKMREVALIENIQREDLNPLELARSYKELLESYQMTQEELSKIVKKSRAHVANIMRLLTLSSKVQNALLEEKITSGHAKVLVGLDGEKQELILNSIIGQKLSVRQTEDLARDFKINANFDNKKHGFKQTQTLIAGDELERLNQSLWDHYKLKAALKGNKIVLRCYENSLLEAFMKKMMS
Description: fluorescence polarization; 1 mM CTP, 5 mM Mg2+; FP: 20 mM Tris-HCl pH 8.0, 175 mM NaCl, 5 mM MgCl2, 10% glycerol, 1 mM ATP or CTP, 5 nM DNA, room temperature; EMSA: 20 mM Tris-HCl pH 8.0, 50 mM NaCl, 11 mM imidazole, 5 mM MgCl2, 10% glycerol, +/- 2 mM CTP, 37 C, gel at 4 C. The conditions noted are these: protein: recombinant, tags: His (Ni-NTA purified), chain copies: 2, blunt.

For data set [6], the target named is T3, HpParB (HpSpo0J). Description: fluorescence polarization; no CTP, 5 mM Mg2+; FP: 20 mM Tris-HCl pH 8.0, 175 mM NaCl, 5 mM MgCl2, 10% glycerol, 1 mM ATP or CTP, 5 nM DNA, room temperature; EMSA: 20 mM Tris-HCl pH 8.0, 50 mM NaCl, 11 mM imidazole, 5 mM MgCl2, 10% glycerol, +/- 2 mM CTP, 37 C, gel at 4 C. As to conditions: protein: recombinant; tags: His (Ni-NTA purified); chain copies: 2; label: 5' Cy3 (FP dye assignment inferred from EMSA); blunt.

Data set [7] addresses T4, HpParAD41A, ATP hydrolysis-deficient mutant of Helicobacter pylori ParA (Helicobacter pylori, UniProt O25759, D41A).
T4 construct: also called HpSojD41A; source: recombinant, grown in Luria-Bertani medium, induced with IPTG, purified as HpParA (Ni-NTA, SEC)
T4 sequence: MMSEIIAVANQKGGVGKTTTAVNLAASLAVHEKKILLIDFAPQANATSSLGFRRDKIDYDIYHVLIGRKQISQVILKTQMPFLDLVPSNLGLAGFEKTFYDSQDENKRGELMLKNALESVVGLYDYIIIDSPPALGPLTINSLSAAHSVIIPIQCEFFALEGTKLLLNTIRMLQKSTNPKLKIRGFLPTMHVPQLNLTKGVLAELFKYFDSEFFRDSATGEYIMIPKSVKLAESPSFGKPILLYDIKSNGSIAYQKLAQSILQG
Briefly: MST; 5-FAM-Ahx-labeled peptide (200 nM) mixed 1:1 with 16 serial dilutions of unlabeled HpParA or HpParAD41A (300 μM); 20 mM Tris-HCl pH 8.0, 5% glycerol, 200 mM NaCl, 50 mM imidazole, 5 mM MgCl2, 0.05% Tween20; 25°C; the results speak of ParA-DNA complexes. The conditions noted are these: both partners purified.

Data set [8] deals with T5, Ct-HpParB (Helicobacter pylori, UniProt O25758 1-240).
T5 sequence: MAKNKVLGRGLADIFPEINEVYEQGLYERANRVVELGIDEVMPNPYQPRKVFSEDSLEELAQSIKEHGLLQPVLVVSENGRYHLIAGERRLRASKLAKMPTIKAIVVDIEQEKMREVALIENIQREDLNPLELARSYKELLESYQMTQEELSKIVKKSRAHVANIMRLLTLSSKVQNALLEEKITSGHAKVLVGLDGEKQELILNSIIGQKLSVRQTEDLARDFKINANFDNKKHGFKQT
Description: EMSA; no CTP; FP: 20 mM Tris-HCl pH 8.0, 175 mM NaCl, 5 mM MgCl2, 10% glycerol, 1 mM ATP or CTP, 5 nM DNA, room temperature; EMSA: 20 mM Tris-HCl pH 8.0, 50 mM NaCl, 11 mM imidazole, 5 mM MgCl2, 10% glycerol, +/- 2 mM CTP, 37 C, gel at 4 C. As to conditions: protein: recombinant; chain copies: 2; label: none (GelRed stain); blunt.

B1: Cy5/Cy3-labeled nsDNA 24-bp (dsDNA)
DNA 1: TCCTATGAATTGCTATGGCAAGCG
DNA 2: CGCTTGCCATAGCAATTCATAGGA
For the molecule B1, the binding result in data set [1] and in data set [2] was “binds” throughout. The Kd turned out to be 149 ± 18.1 nM in data set [3]; 117 ± 15.2 nM in data set [4]; 145 ± 28.8 nM in data set [5] (label: 5' Cy5 in EMSA, FP label Cy3 or Cy5 not specified per DNA).

B2: Cy3-parS 24-bp (dsDNA)
DNA 1: AGGGTGTTCCACGTGAAACAGGGA
DNA 2: TCCCTGTTTCACGTGGAACACCCT
On to B2, for which the Kd was 63.4 ± 5.6 nM in data set [6] and 232 ± 42 nM in data set [5] (label: 5' Cy3 (FP dye assignment inferred from EMSA)).

B3: HpParBN10, N-terminal peptide of HpParB (residues 1-10) (peptide)
peptide: MAKNKVLGRG
modifications: not fully specified (N-terminus); also: labeled with 5-FAM-Ahx fluorophore, site not given here
notes: residues 1-10 of Helicobacter pylori Spo0J/ParB (HP1138); The methods describe only the 5-FAM-Ahx-labelled peptide; also called HpSpo0JN10; source: synthetic peptide, bought: MDBio, inc
Molecule B3 had a Kd in data set [7] of 5300 ± 1100 nM.

B4: nsDNA 24-bp (dsDNA)
DNA 1: TCCTATGAATTGCTATGGCAAGCG
DNA 2: CGCTTGCCATAGCAATTCATAGGA
Take B4: in data set [8], the binding result is given as “no binding”.
